# Results reported in the Human Domainome abundance scans (Beltran et al. 2025).
# ± gives the uncertainty stated by the source.
# B1: Integrator complex subunit 12, residues 155 to 213; numbered along this chain, Q96CB8 (parent)
# chain: AMEMGLACVVCRQMMVASGNQLVECQECHNLYHRDCHKPQVTDKEANDPRLVWYCARCT
# Variants of: B1
# Test: abundance fitness (aPCA) (normalised: wild type 0, dead -1); higher = more abundant; growth selection in yeast, the domain comes from the species named
# Conditions: Homo sapiens
row,Variant,abundance fitness
1,AMEMGLACVNCRQMMVASGNQLVECQECHNLYHRDCHKPQVTDKEANDPRLVWYCARCT,-0.191 ± 0.033
2,AMEMGLACVYCRQMMVASGNQLVECQECHNLYHRDCHKPQVTDKEANDPRLVWYCARCT,-0.202 ± 0.035
3,AMEMGLACVRCRQMMVASGNQLVECQECHNLYHRDCHKPQVTDKEANDPRLVWYCARCT,-0.347 ± 0.039
4,AMEMGLACVQCRQMMVASGNQLVECQECHNLYHRDCHKPQVTDKEANDPRLVWYCARCT,-0.157 ± 0.061
5,AMEMGLACVTCRQMMVASGNQLVECQECHNLYHRDCHKPQVTDKEANDPRLVWYCARCT,-0.46 ± 0.04
6,AMEMGLACVSCRQMMVASGNQLVECQECHNLYHRDCHKPQVTDKEANDPRLVWYCARCT,-0.401 ± 0.034
7,AMEMGLACVPCRQMMVASGNQLVECQECHNLYHRDCHKPQVTDKEANDPRLVWYCARCT,-0.627 ± 0.048
8,AMEMGLACVWCRQMMVASGNQLVECQECHNLYHRDCHKPQVTDKEANDPRLVWYCARCT,-0.381 ± 0.067
9,AMEMGLACVVCQQMMVASGNQLVECQECHNLYHRDCHKPQVTDKEANDPRLVWYCARCT,0.047 ± 0.068
10,AMEMGLACVVCWQMMVASGNQLVECQECHNLYHRDCHKPQVTDKEANDPRLVWYCARCT,-0.405 ± 0.066
11,AMEMGLACVVCVQMMVASGNQLVECQECHNLYHRDCHKPQVTDKEANDPRLVWYCARCT,-0.463 ± 0.041
12,AMEMGLACVVCTQMMVASGNQLVECQECHNLYHRDCHKPQVTDKEANDPRLVWYCARCT,-0.049 ± 0.041
13,AMEMGLACVVCPQMMVASGNQLVECQECHNLYHRDCHKPQVTDKEANDPRLVWYCARCT,-0.546 ± 0.049
14,AMEMGLACVVCNQMMVASGNQLVECQECHNLYHRDCHKPQVTDKEANDPRLVWYCARCT,0.002 ± 0.034
15,AMEMGLACVVCGQMMVASGNQLVECQECHNLYHRDCHKPQVTDKEANDPRLVWYCARCT,0.028 ± 0.037
16,AMEMGLACVVCLQMMVASGNQLVECQECHNLYHRDCHKPQVTDKEANDPRLVWYCARCT,-0.101 ± 0.035
17,AMEMGLACVVCDQMMVASGNQLVECQECHNLYHRDCHKPQVTDKEANDPRLVWYCARCT,0.038 ± 0.041
18,AMEMGLACVVCFQMMVASGNQLVECQECHNLYHRDCHKPQVTDKEANDPRLVWYCARCT,-0.226 ± 0.034
19,AMEMGLACVVCMQMMVASGNQLVECQECHNLYHRDCHKPQVTDKEANDPRLVWYCARCT,-0.081 ± 0.056
20,AMEMGLACVVCEQMMVASGNQLVECQECHNLYHRDCHKPQVTDKEANDPRLVWYCARCT,0.007 ± 0.067
21,AMEMGLACVVCSQMMVASGNQLVECQECHNLYHRDCHKPQVTDKEANDPRLVWYCARCT,0.055 ± 0.031
22,AMEMGLACVVCIQMMVASGNQLVECQECHNLYHRDCHKPQVTDKEANDPRLVWYCARCT,-0.74 ± 0.044
23,AMEMGLACVVCKQMMVASGNQLVECQECHNLYHRDCHKPQVTDKEANDPRLVWYCARCT,0.052 ± 0.053

row,Variant,abundance fitness
1,AMEMGLACVVCCQMMVASGNQLVECQECHNLYHRDCHKPQVTDKEANDPRLVWYCARCT,-0.069 ± 0.039
2,AMEMGLACVVCRWMMVASGNQLVECQECHNLYHRDCHKPQVTDKEANDPRLVWYCARCT,-0.758 ± 0.07
3,AMEMGLACVVCRGMMVASGNQLVECQECHNLYHRDCHKPQVTDKEANDPRLVWYCARCT,-0.17 ± 0.044
4,AMEMGLACVVCRFMMVASGNQLVECQECHNLYHRDCHKPQVTDKEANDPRLVWYCARCT,-0.354 ± 0.035
5,AMEMGLACVVCRRMMVASGNQLVECQECHNLYHRDCHKPQVTDKEANDPRLVWYCARCT,-0.2 ± 0.043
6,AMEMGLACVVCRAMMVASGNQLVECQECHNLYHRDCHKPQVTDKEANDPRLVWYCARCT,-0.088 ± 0.047
7,AMEMGLACVVCRYMMVASGNQLVECQECHNLYHRDCHKPQVTDKEANDPRLVWYCARCT,-0.382 ± 0.036
8,AMEMGLACVVCRKMMVASGNQLVECQECHNLYHRDCHKPQVTDKEANDPRLVWYCARCT,0.011 ± 0.056
9,AMEMGLACVVCRMMMVASGNQLVECQECHNLYHRDCHKPQVTDKEANDPRLVWYCARCT,-0.132 ± 0.05
10,AMEMGLACVVCRCMMVASGNQLVECQECHNLYHRDCHKPQVTDKEANDPRLVWYCARCT,-0.125 ± 0.038
11,AMEMGLACVVCRDMMVASGNQLVECQECHNLYHRDCHKPQVTDKEANDPRLVWYCARCT,-0.075 ± 0.046
12,AMEMGLACVVCRSMMVASGNQLVECQECHNLYHRDCHKPQVTDKEANDPRLVWYCARCT,-0.033 ± 0.032
13,AMEMGLACVVCRLMMVASGNQLVECQECHNLYHRDCHKPQVTDKEANDPRLVWYCARCT,-0.088 ± 0.033
14,AMEMGLACVVCRVMMVASGNQLVECQECHNLYHRDCHKPQVTDKEANDPRLVWYCARCT,-0.114 ± 0.041
15,AMEMGLACVVCRHMMVASGNQLVECQECHNLYHRDCHKPQVTDKEANDPRLVWYCARCT,-0.043 ± 0.039
16,AMEMGLACVVCRIMMVASGNQLVECQECHNLYHRDCHKPQVTDKEANDPRLVWYCARCT,-0.147 ± 0.035
17,AMEMGLACVVCRTMMVASGNQLVECQECHNLYHRDCHKPQVTDKEANDPRLVWYCARCT,-0.089 ± 0.039
18,AMEMGLACVVCRNMMVASGNQLVECQECHNLYHRDCHKPQVTDKEANDPRLVWYCARCT,-0.024 ± 0.036
19,AMEMGLACVVCREMMVASGNQLVECQECHNLYHRDCHKPQVTDKEANDPRLVWYCARCT,-0.074 ± 0.087
20,AMEMGLACVVCRQMHVASGNQLVECQECHNLYHRDCHKPQVTDKEANDPRLVWYCARCT,0.083 ± 0.042
21,AMEMGLACVVCRQMSVASGNQLVECQECHNLYHRDCHKPQVTDKEANDPRLVWYCARCT,0.079 ± 0.03
22,AMEMGLACVVCRQMEVASGNQLVECQECHNLYHRDCHKPQVTDKEANDPRLVWYCARCT,-0.081 ± 0.07
23,AMEMGLACVVCRQMKVASGNQLVECQECHNLYHRDCHKPQVTDKEANDPRLVWYCARCT,0.094 ± 0.064

row,Variant,abundance fitness
1,AMEMGLACVVCRQMDVASGNQLVECQECHNLYHRDCHKPQVTDKEANDPRLVWYCARCT,0.09 ± 0.035
2,AMEMGLACVVCRQMNVASGNQLVECQECHNLYHRDCHKPQVTDKEANDPRLVWYCARCT,0.063 ± 0.034
3,AMEMGLACVVCRQMIVASGNQLVECQECHNLYHRDCHKPQVTDKEANDPRLVWYCARCT,0.028 ± 0.034
4,AMEMGLACVVCRQMQVASGNQLVECQECHNLYHRDCHKPQVTDKEANDPRLVWYCARCT,0.115 ± 0.071
5,AMEMGLACVVCRQMTVASGNQLVECQECHNLYHRDCHKPQVTDKEANDPRLVWYCARCT,0.04 ± 0.039
6,AMEMGLACVVCRQMPVASGNQLVECQECHNLYHRDCHKPQVTDKEANDPRLVWYCARCT,0.084 ± 0.046
7,AMEMGLACVVCRQMAVASGNQLVECQECHNLYHRDCHKPQVTDKEANDPRLVWYCARCT,0.067 ± 0.037
8,AMEMGLACVVCRQMRVASGNQLVECQECHNLYHRDCHKPQVTDKEANDPRLVWYCARCT,0.023 ± 0.032
9,AMEMGLACVVCRQMFVASGNQLVECQECHNLYHRDCHKPQVTDKEANDPRLVWYCARCT,-0.053 ± 0.033
10,AMEMGLACVVCRQMLVASGNQLVECQECHNLYHRDCHKPQVTDKEANDPRLVWYCARCT,-0.013 ± 0.036
11,AMEMGLACVVCRQMWVASGNQLVECQECHNLYHRDCHKPQVTDKEANDPRLVWYCARCT,-0.171 ± 0.048
12,AMEMGLACVVKRQMMVASGNQLVECQECHNLYHRDCHKPQVTDKEANDPRLVWYCARCT,-0.761 ± 0.092
13,AMEMGLACVVDRQMMVASGNQLVECQECHNLYHRDCHKPQVTDKEANDPRLVWYCARCT,-0.818 ± 0.064
14,AMEMGLACVVVRQMMVASGNQLVECQECHNLYHRDCHKPQVTDKEANDPRLVWYCARCT,-1.06 ± 0.07
15,AMEMGLACVVTRQMMVASGNQLVECQECHNLYHRDCHKPQVTDKEANDPRLVWYCARCT,-0.933 ± 0.061
16,AMEMGLACVVSRQMMVASGNQLVECQECHNLYHRDCHKPQVTDKEANDPRLVWYCARCT,-0.877 ± 0.046
17,AMEMGLACVVIRQMMVASGNQLVECQECHNLYHRDCHKPQVTDKEANDPRLVWYCARCT,-0.856 ± 0.049
18,AMEMGLACVVYRQMMVASGNQLVECQECHNLYHRDCHKPQVTDKEANDPRLVWYCARCT,-1 ± 0.05
19,AMEMGLACVVFRQMMVASGNQLVECQECHNLYHRDCHKPQVTDKEANDPRLVWYCARCT,-0.898 ± 0.046
20,AMEMGLACVVERQMMVASGNQLVECQECHNLYHRDCHKPQVTDKEANDPRLVWYCARCT,-0.782 ± 0.13
21,AMEMGLACVVQRQMMVASGNQLVECQECHNLYHRDCHKPQVTDKEANDPRLVWYCARCT,-1 ± 0.1
22,AMEMGLACVVGRQMMVASGNQLVECQECHNLYHRDCHKPQVTDKEANDPRLVWYCARCT,-0.958 ± 0.06
23,AMEMGLACVVARQMMVASGNQLVECQECHNLYHRDCHKPQVTDKEANDPRLVWYCARCT,-0.937 ± 0.078

row,Variant,abundance fitness
1,AMEMGLACVVHRQMMVASGNQLVECQECHNLYHRDCHKPQVTDKEANDPRLVWYCARCT,-0.839 ± 0.055
2,AMEMGLACVVMRQMMVASGNQLVECQECHNLYHRDCHKPQVTDKEANDPRLVWYCARCT,-1.07 ± 0.14
3,AMEMGLACVVRRQMMVASGNQLVECQECHNLYHRDCHKPQVTDKEANDPRLVWYCARCT,-0.885 ± 0.061
4,AMEMGLACVVWRQMMVASGNQLVECQECHNLYHRDCHKPQVTDKEANDPRLVWYCARCT,-0.958 ± 0.12
5,AMEMGLACVVLRQMMVASGNQLVECQECHNLYHRDCHKPQVTDKEANDPRLVWYCARCT,-1.09 ± 0.057
6,AMEMGLACVVNRQMMVASGNQLVECQECHNLYHRDCHKPQVTDKEANDPRLVWYCARCT,-0.673 ± 0.04
7,AMEMGLACVVCRQAMVASGNQLVECQECHNLYHRDCHKPQVTDKEANDPRLVWYCARCT,0.06 ± 0.043
8,AMEMGLACVVCRQRMVASGNQLVECQECHNLYHRDCHKPQVTDKEANDPRLVWYCARCT,0.067 ± 0.046
9,AMEMGLACVVCRQPMVASGNQLVECQECHNLYHRDCHKPQVTDKEANDPRLVWYCARCT,-0.007 ± 0.14
10,AMEMGLACVVCRQNMVASGNQLVECQECHNLYHRDCHKPQVTDKEANDPRLVWYCARCT,0.031 ± 0.036
11,AMEMGLACVVCRQKMVASGNQLVECQECHNLYHRDCHKPQVTDKEANDPRLVWYCARCT,0.085 ± 0.055
12,AMEMGLACVVCRQVMVASGNQLVECQECHNLYHRDCHKPQVTDKEANDPRLVWYCARCT,0.06 ± 0.035
13,AMEMGLACVVCRQYMVASGNQLVECQECHNLYHRDCHKPQVTDKEANDPRLVWYCARCT,0.019 ± 0.036
14,AMEMGLACVVCRQIMVASGNQLVECQECHNLYHRDCHKPQVTDKEANDPRLVWYCARCT,0.028 ± 0.042
15,AMEMGLACVVCRQGMVASGNQLVECQECHNLYHRDCHKPQVTDKEANDPRLVWYCARCT,0.115 ± 0.033
16,AMEMGLACVVCRQQMVASGNQLVECQECHNLYHRDCHKPQVTDKEANDPRLVWYCARCT,0.082 ± 0.28
17,AMEMGLACVVCRQSMVASGNQLVECQECHNLYHRDCHKPQVTDKEANDPRLVWYCARCT,0.073 ± 0.032
18,AMEMGLACVVCRQDMVASGNQLVECQECHNLYHRDCHKPQVTDKEANDPRLVWYCARCT,0.101 ± 0.037
19,AMEMGLACVVCRQHMVASGNQLVECQECHNLYHRDCHKPQVTDKEANDPRLVWYCARCT,-0.02 ± 0.11
20,AMEMGLACVVCRQEMVASGNQLVECQECHNLYHRDCHKPQVTDKEANDPRLVWYCARCT,0.042 ± 0.059
21,AMEMGLACVVCRQTMVASGNQLVECQECHNLYHRDCHKPQVTDKEANDPRLVWYCARCT,0.016 ± 0.064
